A word on the Kd: it is the concentration at which binding is half-saturated. A higher Kd goes with a looser complex.

The experiment deals with S318-510 fragment (amino acids 318-510 of the S protein of SARS-CoV strain Frankfurt 1) (SARS-CoV strain Frankfurt 1, UniProt P59594 318-510).

Where “and” joins values, the source holds several entries; their conditions need not be identical. Identical values can stand only once.

B1: CR03-014 (antibody, V domains shown)
VH: EVQLVESGGGLVQPGGSLRLSCAASGFTFSDHYMDWVRQAPGKGLEWVGRTRNKANSYTTEYAASVKGRFTISRDDSKNSLYLQMNSLKTEDTAVYYCARGISPFYFDYWGQGTLVTVSS
VL: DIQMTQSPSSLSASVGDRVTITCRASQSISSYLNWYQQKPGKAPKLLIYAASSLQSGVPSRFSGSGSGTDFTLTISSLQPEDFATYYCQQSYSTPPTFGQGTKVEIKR
On to B1, for which the dissociation constant (Kd) is 16.3 nM and 14.8 nM.
